According to the domain aggregation screens of Martell et al. (2025):

Test: soluble fraction after stress (log2 fold change); higher = more stays soluble; pooled small domains, quantitative proteomics
Settings: stress: 50 degC
Summary of the method: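 Pooled custom libraries of small protein domains were measured in a high-throughput format, with quantitative proteomics as the read-out. Each library was stressed at 50°C. Aggregation propensity is given as the base-two logarithm of the fold change in how much of each protein stays soluble after the stress. Higher values mean a larger share of the protein remains in solution.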

Sequence | soluble fraction (log2)
HMKDMKISTQNILKELATNYPDQTAFRKNVIESTAKSMGYTGKDFYPMLTAETRVKIGTYDLSALLQTV | -0.178
HMSGDKKLQMNLILEFAQQNESFRTKDIEELLQIRSSRARKLISDLVTEGRLEALGENRNRRYQLI | -0.985
HMEKKPYGEMHNVMLTDEELEKLRHDYPAHFAEYIQRLSLHIDAKGARYKSHYAVIRKWLIADGVKA | -0.679
HMEPLVSKVFQVSYQKTADLVALIKSEDSKLLSARGTLISDERTSQIFVQDTPTRLERISMIVNGL | -0.883
HMEVLSKRGSTGTEVINIQKKLKNWGYYTGSVDGIYGKLTEEAVRYFQRTNGLTVDGIAGKNTLAAMGIA | -0.356
HMVAQEVPYSTFVMRLDRNEVDAVKIIDGNEIEGTFKSPNGDLVQFKTLIPYQDTELMPLLKQKGVRISGS | 0.386
HMDQDIILHKVQPGDTLSKILLHYHSHQDRNKLQGLIAESMTANPFIKNPDLIYPGQLIQVPVPA | 0.05
HMITNESEIERIVEAIISKNPESIAQYRSGITKVLGFLVGQVMKETKGRANPALVNRIIISKME | -0.281
HMSKRDDLLDQASEWLAKLDRDLTVVEERELKAWLGESAAHRETFIQMAKLWDKMESLSRLTDL | -0.397
HMLSTQEYIKKNIENGSWKVGEKIPSENNLTEILGVSRASIRVAIQQFIALDVLNSIHGKGTFVKTNNIMG | 0.256
HMSYTPGQWVEASMPNATFFRIVPSGNATADKMLAVATPMKVISTSGTYVKVELDSGDVGFVPEIMV | -0.46
HMTLDSLEKLSVNDLEKMLVNMPVGYKTIFLLSVIDEYSHKEIGELLGITPETSRSQLFRAIKWIKTNIF | -0.428
HMKRTMVEAAMVAKLFNLTVRRIQQLTQDGVLTTELVDKKRRYDLLLTVQKYIAYLQEKVAK | -3.24
HMSTLKSALDEIPGIGAARKRALLNHFGSTRVISSVGVKDLEQVEGVSKKIALLIYGYFHDK | -2.06
HMKEVVKVTITPSEKLKSQYPDALVSIDGKFYDLGILNNPVEFYMDKDHKISIIWSTAELVESFRI | -0.00922
HMGWVMLVIMSRGASEAQINAVVEKIRAAGLTEHLSKGIERTIIGAIGEERKLEPEVFELLPGVEQALHIV | -0.342
HMLKGTVKWFNESKGFGFIEQEEGKDVFVHYSAITGSGFKTLNEGDKVQFEIVDGPKGPAAANVSK | -0.0666
HMIGGASVFKQFLPLADKMLLTLIHSEFEGDTYFPVFSEKEWLLQESSSLLSATGYQLSFQTYIR | 0.0328
HMKDLIGEAKAKELALGHAKLSASDVTFIHVELDWENGRRVYDVEFYSGAKEYDYEIDAKTGEIVSFDY | -1.27
HMGHYGQMTRDLIEKAKTYEEGEEKAALVLTIANLMKRHYLTWNRATVENTLIAEQLKEMSEGALTLPEDV | -0.51
HMGRLNMRRIRDVLRLKFGQGLSERQVAASLGLSKTSVGTYLHRARQAGLTWPLPQGLDDDGLELLLFP | -1.29
HMITLKKRRQEAILEIIEKYDLSTQDELLQKLKDSGFDATQATVSRDIKELRLVKTMGANGQYKYAVT | -0.403
HMAEMRYLDQIYEVNVPLPDLSLEDGDLLARWAVNFHQRYEELFSYRQSDQEIRLVTLRVTVLGELP | -0.653
HMDSIDIDAETKSLGPNAPQIIKGIKEWGQGLVAKGVWSDQDFEEFKVFAATANGINALNKVRKFY | -0.154
HMEDAFLQRLISIIEANLSNVDFNVKMLAEQLNMSQPTLYRKVKQRSELSVIDMIRSIRILSLIHISEPTR | -0.988

Sequence | soluble fraction (log2)
HMKAPLTFVIEGKEYEAFDQYKTGAELKQLAGIPLDTELFLSISKPYQDELIENEKQVNLARPETEYFFVK | -0.0489
HMEFQSIGGKIRIGREREHLTQAELAQKLSVTRQAVSNWERDKTLPDIYMIREIAEIFGLTLDEFMEGAKK | -0.672
HMAVPAALVQAWLELSRRMVAGTQDVGERFAEEARKMHYGETEDRGIRGQATLTEVRDLLDEGIEVLPLLL | -0.392
HMSQIQIKLDQAIMQLPEKQRFVFMLRYFEELPYEKIAQITETSIGGAKANFHQALKKMQEIIQ | -2.96
HMQLSQLLQPFDINAFKGHPLYTEENVKMFNDYTNRVKEWTKGTPYEQYWVTKEGQPTMLAWDSFKK | -0.972
HMNVAVGNSKLVGVAGERAYFVNGVGAAARTLSLQVGDALPTGEKVRRIERDGVTMTGASGDVRLSVLP | 0.0813
HMKIHNSIREITDFDRKQNSNIPSDAKYRIVFYTPQGNKTIIPEELQGLQYYRSKELAEIALNKKLNSN | -0.132
HMKAGEDAVQKAVLEAVAESAAAVADYKAGSERALNFIVGKVMKKTRGKASAAEVHRLVREEVDR | 0.0904
HMGRELDLNQRVYDFIHDIADEVRTDEGTFSANQMMERFLFPGDLQSVPIGRLSGGERRRLYLLSVLMVKI | 0.117
HMENTSPMTPEQSKALMAYLTKRHGDSREAYLSELSQFFGRPLSSSRELTKADVSEFLNAIN | 0.161
HMLTAPMPGIVTEILVKEGQRVRSGQPLMILEAMKMEHQVTAPKSGQIEKIYFSEGEKVDMGSDLLSIS | 0.181
HMSESAGKALDILFYLARVEDEVSLARLSKETGMNKATALRYLAVLESWGVVEKRPSGWSLGLSLFELGSK | -2.13
HMTKYKEIVDQLRTNIYEGVFPALSKLPEQTALAKRFQTSRMTIQKALNQLKQEGLISTKRGHGTYVNSAT | -0.298
HMAPPDFTTFMRNYQDMVYSTAVRLIGNETQAEDIAQEVFIKAHAHFENLRTSPSAGGWLKTVATNLSIN | -0.997
HMDYEVPEELEEKFSENPQFKEAFDNLTPGRQHQYIYHISQAKRSQTRINRIEKYYEHILNGKGMQD | 0.0659
HMKKITTANPLDINRATLAQLDTLPGIGPVTAERIIAYRSKVGRINSLDELKKISGLGGMKFEEIKPLLRV | 0.042
HMARNHYETLGVGRTATGDEIRKAYRSEAQKHHPDRGGDAERMQSLNEARDTLLDDQARAAYDQELDL | 0.125
HMSAEVMLRRLIDENDPSSENARYILAVMLERKKILAPVDVKNEKKSKMLFYEHQKTGEAFIVRDP | -0.267
HMTDSQLVEAENHVALRQAMAHLGPRERELIGLYYFEEQSQTQIAARFGVSQMQVSRWLTSAVGRIRGQMA | -0.00256
HMPKAPHETLSRREMEVLLLLSEGVTLTRIGDTIHVSVKTVSTYRARILQKLDLQSNAELTRYVLQHKL | -3.38
HMDSQSVFADLVKSLSQKIASIPVWFEYTKNEQYDLISSYVSAKLKDLGVEFSQEEKEKFITMFMNS | -0.267
HMGFSKGKRDLIRMIKLAIRELADDNGRAQIEDVITRLVQEGHSRDEIRLQIDMFLRQGEAMEPKQGIIKL | 0.325
HMNAQLTTQEAADLLNVSRPHLVKLLEDGELPFLRTGKHRRVRLADLLQFKNAREQASVQAMDELSRQAQ | 0.154
HMYVSGVPAITSIERVSTPGRRVYAGYTTVPKVIGGMGVSILTTSRGVMTDAEARRQKVGGELLAKV | -0.0341
HMYRPQQEFTMRDLFQNNLNGSESASVRRDALGAELGIGYGNAKRFLERLNHYGVSREEFTAALEKLESE | -0.224

Sequence | soluble fraction (log2)
HMITALLPGTVLIREFDGRDYHVTVATDGRFEMDGHKYPSLSAVAKHITGTQWSGPAFFGLN | -1.75
HMSVTIENQINTYFQTRDKISRDELVALIKKDFANWTDNTINIYVSSLQKRGIIHSLSRGMYALGN | -1.98
HMVIANADVRAKFSKGKDSFVKYYFKEKVLKDGFTEEVKNNIVQALFYLQIVTRIDGESGVLIIDY | -0.0492
HMSRGAIVTGTVIEKNQSGIYVDLGYKSDGIVPIEEFDGEESKYNVGDQIRVYVKKVDDGHGQLML | 0.126
HMSHQIIIVAVELDPSTERIVYYLSKNGISINVLFFKVFQHGDEQFLSRVWLIDPSETQTNAALA | -0.466
HMDMTPEEFLAWARHKPFGDPFPKTQTVTFLVPLLGVSRTNIFTWISGKVNPSKTSLLLMEALKRENR | -0.289
HMEAFAEAVASMLRKLQPEFAIDLVGPRELLVNGRRLDLENLYRMVNHEPVRGQEIVEHYLDQLFAG | -0.53
HMGESVVVPDLRGKTLEEARAILKKVDLDYEINDSTYSKTAVPGTIRDIVPAPGSHVKAGRILFVSING | -0.145
HMLPGLGPIERAQFMLQAIPGISPTRSAALIDKFGSIAGIAQASIKDIQTIEGIGKKTATTLYEVLNAG | -0.341
HMGFSERLAQAMSHAGYTQGGLAKAVGMAQSSVNKLLNNANSSRKTVEIASVLGVRPEWLSTGEGDML | 0.00207
HMHMHTADDFKQLAKHTSNGRLRTRYLALYHFKKGETRTQIAAYLGVARGSVNTWVSNYLAYGLEGLQS | -2.56
HMSERIITFGEATREAMLEEMRADERVFVYGEDIAKQGGIFGQFAGMKDEFPERVLDTPISETALVGAG | 0.0621
HMDLSPEQAELAAIRGELGIKIDDYALALNIPRDRLTSYLYGRANVPAEVLISARELRYASSA | 0.00303
HMLPLGSNEYETAVIKHLASGVQDADEIQRLTGIDQTSLNTALTMLELAGTIRPLGNNHWTL | 0.167
HMSSFSESFHKALNNLDDKHKSVFSLRHFEGFSMKEIAETLNINEGTVKSRLFYATKTLAGALKEF | -2.74
HMRAVPSIAFVTQKLIEQGVTMEQLVRSLLLDHEEYENDDSLERTADELFGKARMIISNYTPE | -1.01
HMNESPVLAVLTPTERKVASLVAEGLTNQAIAARMILAEGTVKNHVSTLLHKLQAPDRTALALTLYKAFQ | -0.469
HMTAQASDIEKVLQVIETLGFRGHTLPGENRTAIGVTGNRGSIDPAHFENLPGVADAIRVTKPY | 0.0639
HMSRDYKTELQERLQVNGPVKIEYQVIAEDESKPSFKVQLLVNDKKISEGQGRNKKAAEQQAAQAAL | 0.0625
HMFIKVEVPDLTGMTLTEVRKALEEKNLKMGDIRPAGQTSLVAKVINQSPQAKMVVDEYSEVSIQFEE | -0.217
HMTRPLVILEDVKFPSYNEIVSLTLPDGTRRGGQVLEVSGNKAIVQVFEGTSGIDVKDTHIELTKSS | 0.0245
HMNQIFAPMPGLVLEVKLSEGDVVAEGESAIILEAMKMENIIKSPINGIVKKVHVKKGQTIEKNTLIISFK | -1.15
HMTEWSIHEVAQRSGVTTRTLRHYDAIGILSPTRTGANGYRYYGPEALVRLQRILLLRDLGLALSDIAE | -4.61
HMPKIPRLTLTETAGIMGVSQRALALAIQQGMYSWAQALPGRNKKRPIYFINAITFAKAQGIDLEEYK | -1.11
HMRTSIWTAIAHSLRSDIGSGVYGPDDKLPTESALAARFGVNRHTVRHAIKALTDEGLVLPRRGAGVFVTS | -0.21
